Laboratory results: US20180230200A1 (CITY OF HOPE, published 2018)

Tests used:
[1] = target: T1, gH/gL/UL128/UL130/UL131A pentamer complex expressed from MVA-PC in BHK-21 cells (human cytomegalovirus, UniProt P12824 24-743; P16832 31-278; P16837 28-171; P16772 1-214; F5HET4 19-129); test: FC, biotinylated NAb titrated on MVA-PC-infected BHK-21 (cell surface PC)
T1 construct: whole, on cells

gH of HCMV strain TB40/E = gH of HCMV strain TB40/E (human cytomegalovirus strain TB40/E); test: cell-based or functional assay
gH of HCMV strain TR = gH of HCMV strain TR (human cytomegalovirus strain TR); test: cell-based or functional assay
[2] = target: T1, gH/gL/UL128/UL130/UL131A pentamer …; test: FC competition, MVA-PC BHK-21; unlabelled row Ab; competitor: biotinylated 18F10
[3] = target: T1, gH/gL/UL128/UL130/UL131A pentamer …; test: FC competition, MVA-PC BHK-21; unlabelled row Ab; competitor: biotinylated 62-11; also: test concentration or dose not given here
[4] = target: T2, UL130 expressed from MVA in BHK-21 cells (human cytomegalovirus, UniProt P16772 1-214); test: intracellular FC, MVA-infected BHK-21
T2 construct: whole, on cells
Procedure: (§1) NAb subunit specificity was evaluated by staining BHK-21 cells infected with different MVA recombinants. One or more vectors were used to co-infect BHK-21 at an MOI of 5. […] Four hours post infection cells were fixed and permeabilized using Cytofix/Cytoperm solution (BD Biosciences). NAbs (1 mg/ml) were diluted 1:500 in perm/wash buffer (BD) and added to the cells for 1 hour at 4° C. […] Cells were washed again and resuspended in PBS/0.1% BSA. Fifteen thousand events were collected using the Gallios Flow Cytometer (Beckman Coulter, Miami, Fla., USA) and analyzed with FlowJo Software (Tree Star, Ashland, Oreg., USA). Uninfected cells and cells infected with MVA-Venus were used as controls. GFP expression was analyzed for confirming MVA infection since all the constructs contain a GFP expression cassette (36, 62).
(§2) In order to determine the antigen specificity of the vaccine-derived NAbs, intracellular flow cytometry (FC) staining of permeabilized BHK-21 cells infected with MVA expressing single subunits or combinations of two or more subunits of the PC was evaluated.

[5] = target: T3, UL128/UL130 co-expressed from MVA in BHK-21 cells (human cytomegalovirus, UniProt P16837 28-171; P16772 1-214); test: intracellular FC, MVA-infected BHK-21
T3 construct: whole, on cells
Procedure: as §1, §2

[6] = target: T4, UL128/UL130/UL131A co-expressed from MVA in BHK-21 cells (human cytomegalovirus, UniProt P16837 28-171; P16772 1-214; F5HET4 19-129); test: intracellular FC, MVA-infected BHK-21
T4 construct: whole, on cells
Procedure: as §1, §2

[7] = target: T5, UL128 expressed from MVA in BHK-21 cells (human cytomegalovirus, UniProt P16837 28-171); test: intracellular FC, MVA-infected BHK-21
T5 construct: whole, on cells
T5 sequence: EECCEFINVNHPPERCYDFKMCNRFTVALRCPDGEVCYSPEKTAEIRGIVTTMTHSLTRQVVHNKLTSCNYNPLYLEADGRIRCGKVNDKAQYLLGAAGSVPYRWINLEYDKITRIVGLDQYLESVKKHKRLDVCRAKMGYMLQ
Procedure: as §1, §2

[8] = target: T6, UL128/UL131A co-expressed from MVA in BHK-21 cells (human cytomegalovirus, UniProt P16837 28-171; F5HET4 19-129); test: intracellular FC, MVA-infected BHK-21
T6 construct: whole, on cells
Procedure: as §1, §2

[9] = target: T7, UL130/UL131A co-expressed from MVA in BHK-21 cells (human cytomegalovirus, UniProt P16772 1-214; F5HET4 19-129); test: intracellular FC, MVA-infected BHK-21
T7 construct: whole, on cells
Procedure: as §1, §2

[10] = target: T8, UL131A expressed from MVA in BHK-21 cells (human cytomegalovirus, UniProt F5HET4 19-129); test: intracellular FC, MVA-infected BHK-21
T8 construct: whole, on cells
Procedure: as §1, §2

[11] = target: T1, gH/gL/UL128/UL130/UL131A pentamer …; test: FC competition, MVA-PC BHK-21; unlabelled row Ab; competitor: biotinylated 2-80; also: test concentration or dose not given here
[12] = target: T1, gH/gL/UL128/UL130/UL131A pentamer …; test: FC competition, MVA-PC BHK-21; unlabelled row Ab; competitor: biotinylated AP86; also: test concentration or dose not given here
[13] = target: T1, gH/gL/UL128/UL130/UL131A pentamer …; test: FC competition, MVA-PC BHK-21; unlabelled row Ab; competitor: biotinylated 21E9; also: test concentration or dose not given here

B1: 21E9 (antibody, V domains shown)
VH: QIQLVQSGPELKKPGETVKISCKASGYTFTIYGMNWVKQAPGKGLKWMGWINTYTGEPTYADDFRGRFAFSLETSASTAYLQINNLKNEDTATYFCARKGYYGSSGYFDYWGQGTTLTVSS
VL: SIVMTQTPKFLLVSAGDRVTITCKASQSVSNDVSWYQQKPGQSPKLLIYYASNRYTGVPDRFTGSGYGTDFTFTISTVQAEDLAVYFCQQDYSSPWTFGGGTKLEIK
notes: also called NAb 21E9
EC50 [1]: 18 nM
IC50, inhibition of TB40/E cell-to-cell spread in ARPE-19 (gH of HCMV strain TB40/E): 157 µg/mL
IC50, neutralization of TB40/E infection of ARPE-19 (gH of HCMV strain TB40/E): 1.41 µg/mL
IC50, neutralization of TB40/E infection of CTB (gH of HCMV strain TB40/E): 42.4 µg/mL
IC50, neutralization of TB40/E infection of HUVEC (gH of HCMV strain TB40/E): 2.37 µg/mL
IC50, neutralization of TB40/E infection of MRC-5 (gH of HCMV strain TB40/E): 5.78 µg/mL
IC50, inhibition of TR cell-to-cell spread in ARPE-19 (gH of HCMV strain TR): 262 µg/mL
IC50, neutralization of TR infection of ARPE-19 (gH of HCMV strain TR): 0.926 µg/mL
IC50, neutralization of TR infection of HUVEC (gH of HCMV strain TR): 2.92 µg/mL
IC50, neutralization of TR infection of MRC-5 (gH of HCMV strain TR): 4.14 µg/mL
Binding Inhibition (%) [2]: 0%
Binding Inhibition (%) [3]: 32%
binding result [4]: no binding
binding result [5]: no binding
binding result [6]: no binding
binding result [7]: no binding
binding result [8]: no binding
binding result [9]: no binding
binding result [10]: no binding
Binding Inhibition (%) [11]: 100%
Binding Inhibition (%) [12]: 0%
Binding Inhibition (%) [13]: 100%

B2: 62-11 (antibody, V domains shown)
VH: QVQLQQPGAELVRPGASVKLSCKASGYTFTSYWMNWVKQRPGQGLEWIGMIDPSDSETHYNQMFKDKATLTVDKSSSTAYMQLSSLTSEDSAVYYCSNGYSSFAYWGQGTLVTVSV
VL: DVQMTQTTSSLSASLGDRVTISCSASQGISNYLNWYQQKPDGTVKLLIYDTSSLHSGVPSRFSGSGSGTDYSLTISNLEPEDIATYYCQQYSKLPYTFGGGTKLEIK
notes: also called NAb 62-11
EC50 [1]: 1.7 nM
IC50, inhibition of TB40/E cell-to-cell spread in ARPE-19 (gH of HCMV strain TB40/E): 87 µg/mL
IC50, neutralization of TB40/E infection of ARPE-19 (gH of HCMV strain TB40/E): 0.185 µg/mL
IC50, neutralization of TB40/E infection of CTB (gH of HCMV strain TB40/E): 2.76 µg/mL
IC50, neutralization of TB40/E infection of HUVEC (gH of HCMV strain TB40/E): 0.102 µg/mL
IC50, neutralization of TB40/E infection of MRC-5 (gH of HCMV strain TB40/E): 0.182 µg/mL
IC50, inhibition of TR cell-to-cell spread in ARPE-19 (gH of HCMV strain TR): 395 µg/mL
IC50, neutralization of TR infection of ARPE-19 (gH of HCMV strain TR): 0.641 µg/mL
IC50, neutralization of TR infection of HUVEC (gH of HCMV strain TR): 0.83 µg/mL
IC50, neutralization of TR infection of MRC-5 (gH of HCMV strain TR): 3.35 µg/mL
Binding Inhibition (%) [2]: 0%
Binding Inhibition (%) [3]: 100%
binding result [4]: no binding
binding result [5]: no binding
binding result [6]: no binding
binding result [7]: no binding
binding result [8]: no binding
binding result [9]: no binding
binding result [10]: no binding
Binding Inhibition (%) [11]: 54%
Binding Inhibition (%) [12]: 0%
Binding Inhibition (%) [13]: 46%

B3: 62-100 (antibody, V domains shown)
VH: QVQLQQPGAELVRPGASVKLSCKASGYTFTSYWMNWVKQRPGQGLEWIGMIDPSDSETHYNQMFKDKATLTVDKSSSTAYMQLSSLTSEDSAVYYCSNGYSSFAYWGQGTLVTVSV
VL: DIVLTQSPATLSVTPGDSVSLSCRASQSISNNLHWYQQKSHESPRLLIKYASQSISGIPSRFSGSGSGTDFTLSINSVETEDFGKYVCQQSNSWPLTFGSGTKLEIK
notes: also called NAb 62-100
EC50 [1]: 3.3 nM
IC50, inhibition of TB40/E cell-to-cell spread in ARPE-19 (gH of HCMV strain TB40/E): 103 µg/mL
IC50, neutralization of TB40/E infection of ARPE-19 (gH of HCMV strain TB40/E): 0.27 µg/mL
IC50, neutralization of TB40/E infection of CTB (gH of HCMV strain TB40/E): 3.62 µg/mL
IC50, neutralization of TB40/E infection of HUVEC (gH of HCMV strain TB40/E): 0.156 µg/mL
IC50, neutralization of TB40/E infection of MRC-5 (gH of HCMV strain TB40/E): 0.293 µg/mL
IC50, inhibition of TR cell-to-cell spread in ARPE-19 (gH of HCMV strain TR): 337 µg/mL
IC50, neutralization of TR infection of ARPE-19 (gH of HCMV strain TR): 2.13 µg/mL
IC50, neutralization of TR infection of HUVEC (gH of HCMV strain TR): 1.03 µg/mL
IC50, neutralization of TR infection of MRC-5 (gH of HCMV strain TR): 1.98 µg/mL
Binding Inhibition (%) [2]: 0%
Binding Inhibition (%) [3]: 100%
binding result [4]: no binding
binding result [5]: no binding
binding result [6]: no binding
binding result [7]: no binding
binding result [8]: no binding
binding result [9]: no binding
binding result [10]: no binding
Binding Inhibition (%) [11]: 57%
Binding Inhibition (%) [12]: 0%
Binding Inhibition (%) [13]: 51%

B4: 2-80 (antibody, V domains shown)
VH: QIQLVQSGPELKKPGETVKISCKASGYTFTNFGMNWVKQAPGKGLKWMGWINTYTGEPTYADDFKGRFAFSLETSASTASLQINNLKNEDTATYFCARRGDGLYSMDYWGQGTSVTVSS
VL: DIVLTQSPASLAVSLGQRATISCRASESIDSYGNSFMYWYQQKPGQPPKLLIYRASNLESGIPARFSGSGSRTDFTLTINPVEADDVATYYCQQSNEDPLTFGAGTKLELK
notes: also called NAb 2-80
EC50 [1]: 2.8 nM
IC50, inhibition of TB40/E cell-to-cell spread in ARPE-19 (gH of HCMV strain TB40/E): > 400 µg/mL
IC50, neutralization of TB40/E infection of ARPE-19 (gH of HCMV strain TB40/E): 1.43 µg/mL
IC50, neutralization of TB40/E infection of CTB (gH of HCMV strain TB40/E): > 50 µg/mL
IC50, neutralization of TB40/E infection of HUVEC (gH of HCMV strain TB40/E): 1.41 µg/mL
IC50, neutralization of TB40/E infection of MRC-5 (gH of HCMV strain TB40/E): 1.6 µg/mL
IC50, inhibition of TR cell-to-cell spread in ARPE-19 (gH of HCMV strain TR): 398 µg/mL
IC50, neutralization of TR infection of ARPE-19 (gH of HCMV strain TR): 2.12 µg/mL
IC50, neutralization of TR infection of HUVEC (gH of HCMV strain TR): 2.54 µg/mL
IC50, neutralization of TR infection of MRC-5 (gH of HCMV strain TR): 1.72 µg/mL
Binding Inhibition (%) [2]: 0%
Binding Inhibition (%) [3]: 43%
binding result [4]: no binding
binding result [5]: no binding
binding result [6]: no binding
binding result [7]: no binding
binding result [8]: no binding
binding result [9]: no binding
binding result [10]: no binding
Binding Inhibition (%) [11]: 100%
Binding Inhibition (%) [12]: 0%
Binding Inhibition (%) [13]: 100%
